Tests used:
human ADAMTS5 [1] = molecular target: T1, human ADAMTS5 (Homo sapiens, UniProt Q9UNA0); test: FRET-based human ADAMTS5 enzymatic assay; format: biochemical
T1 sequence (Q9UNA0 262-930): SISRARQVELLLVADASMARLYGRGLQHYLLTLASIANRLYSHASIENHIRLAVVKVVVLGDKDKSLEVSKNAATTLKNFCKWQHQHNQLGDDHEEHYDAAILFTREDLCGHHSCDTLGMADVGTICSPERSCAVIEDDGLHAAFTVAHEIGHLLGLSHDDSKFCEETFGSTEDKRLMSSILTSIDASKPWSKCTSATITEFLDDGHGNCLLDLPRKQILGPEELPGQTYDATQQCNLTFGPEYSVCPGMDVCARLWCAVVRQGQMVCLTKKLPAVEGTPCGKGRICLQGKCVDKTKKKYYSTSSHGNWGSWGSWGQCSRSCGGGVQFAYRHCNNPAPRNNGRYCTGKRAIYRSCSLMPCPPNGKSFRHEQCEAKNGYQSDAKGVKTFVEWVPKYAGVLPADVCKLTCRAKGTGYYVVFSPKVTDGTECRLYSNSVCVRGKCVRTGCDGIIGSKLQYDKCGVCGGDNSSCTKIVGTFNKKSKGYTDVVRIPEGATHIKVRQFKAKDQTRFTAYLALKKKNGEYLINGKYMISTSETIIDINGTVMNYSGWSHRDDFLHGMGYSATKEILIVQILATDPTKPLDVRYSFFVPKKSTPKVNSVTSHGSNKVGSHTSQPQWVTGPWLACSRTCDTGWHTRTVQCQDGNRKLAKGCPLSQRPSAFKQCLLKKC
Method: (§1) In short, a periplasmic extract of ISVD 02F03 was tested for binding to recombinant human ADAMTS5 by binding ELISA. Next, it was confirmed that ISVD 02F03 was able to prevent ADAMTS5-mediated cleavage of Aggrecan in a FRET-based human ADAMTS5 enzymatic assay. Next to the FRET-based assay, an AlphaLISA (Perkin Elmer, Waltham, MA, US) based human ADAMTS5 assay with a biotinylated 43-mer Aggrecan oligopeptide as substrate was performed. Upon ADAMTS5 cleavage of this substrate, a biotinylated ARGSV neo-epitope product is released and can be detected by streptavidin-AlphaScreen donor beads and an α-neo-epitope (“ARGSV”) antibody captured on anti-mouse IgG-coated AlphaLISA acceptor beads, resulting in the generation of a luminescence AlphaScreen signal upon laser excitation. To determine the ability of ISVD 02F03 to prevent ADAMTS5-mediated cleavage of the substrate, the decrease in signal was analysed in function of ISVD 02F03 concentration and IC50 values were calculated.

human ADAMTS4 = molecular target: T2, human ADAMTS4 (Homo sapiens, UniProt O75173); test: human ADAMTS4 AlphaLISA; format: biochemical; conditions: data not shown
T2 construct: purchased R&D Systems 4307-AD
T2 sequence (O75173 213-837): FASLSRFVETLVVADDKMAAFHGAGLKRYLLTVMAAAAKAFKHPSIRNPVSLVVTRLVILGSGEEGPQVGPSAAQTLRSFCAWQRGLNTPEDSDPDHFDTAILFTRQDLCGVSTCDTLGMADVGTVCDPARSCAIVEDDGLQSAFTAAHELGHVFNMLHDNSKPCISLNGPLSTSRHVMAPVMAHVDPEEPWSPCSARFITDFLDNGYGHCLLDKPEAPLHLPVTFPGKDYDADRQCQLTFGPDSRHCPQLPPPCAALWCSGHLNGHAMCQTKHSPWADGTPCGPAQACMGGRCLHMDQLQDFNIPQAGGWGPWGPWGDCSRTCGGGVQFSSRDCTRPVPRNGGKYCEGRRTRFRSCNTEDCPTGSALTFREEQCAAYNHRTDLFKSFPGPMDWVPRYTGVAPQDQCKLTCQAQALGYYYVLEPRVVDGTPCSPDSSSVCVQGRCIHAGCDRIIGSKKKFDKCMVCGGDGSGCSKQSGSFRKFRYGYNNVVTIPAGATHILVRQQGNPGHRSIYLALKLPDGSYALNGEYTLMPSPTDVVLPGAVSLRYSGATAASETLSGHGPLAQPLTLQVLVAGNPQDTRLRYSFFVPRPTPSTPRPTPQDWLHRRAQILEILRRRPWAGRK
Method: To confirm the selectivity of ISVD 02F03 for ADAMTS5, inhibition of the enzymatic activity of MMP1, MMP14 and ADAMTS4 was evaluated via FRET-based assays and a human ADAMTS4 AlphaLISA, with the respective enzymes.
To evaluate inhibition of human ADAMTS4, an assay similar to the human ADAMTS5 AlphaLISA was carried out, essentially as described in Example 2.1, but using human ADAMTS4 (R&D Systems, Minneapolis, US; cat #4307-AD). To determine the ability of ISVD 02F03 to prevent human ADAMTS4-mediated cleavage of the substrate, the decrease in signal was analysed in function of ISVD 02F03 concentration and IC50 values were calculated.

human ADAMTS5 [2] = molecular target: T1, human ADAMTS5; test: AlphaLISA based human ADAMTS5 assay; format: biochemical
Method: as §1

bovine ADAMTS5 = test: SPR-based off-rate analysis, bovine ADAMTS5; format: binding; conditions: Experiment 3
Method: (§2) Species cross-reactivity was initially evaluated via SPR-based off-rate analysis on a Biacore T100 instrument. Polypeptides were tested for binding to human, cynomolgus monkey (“cyno”), guinea pig, mouse, and bovine ADAMTS5. To this end, recombinant ADAMTS5 was immobilized onto a CM5 chip via amine coupling using EDC and NHS. Purified ISVD 02F03 was injected for 2 minutes at a concentration of 100 nM and allowed to dissociate for 15 min at a flow rate of 45 μl/min. Off-rate for each individual ADAMTS5 was determined by fitting a 1:1 interaction model (Langmuir model) onto the individual dissociation curves using the BIA Evaluation software. As a reference, off-rates on human ADAMTS5 were determined in each experiment.

[3] = system: bovine cartilage explant chips; test: bovine cartilage explant assay, IL-1α induced GAG release (02F03); format: cell-based
Method: In addition, ISVD 02F03 was further evaluated for its ability to block cartilage degradation in an ex vivo assay, in which the substrate is presented in a condition closer to the physiological condition compared to biochemical assays. In brief, bovine cartilage explant chips (diameter 4 mm) were prepared freshly from cow knee joints and incubated in 96-well plates in presence of IL-1α to induce cartilage degradation. As a measure of cartilage/Aggrecan degradation, the release of glycosaminoglycan (GAG) was detected in the supernatant after 5 days of incubation (37° C., 7.5% C02) via the metachromatic dye 1,9 dimethylmethylene blue ([…] at 633 nm). Chondroitin sulphate was included as assay standard. Efficacy was defined by means of the IL-1α-induced controls without compound (0%) and in presence of MSC2310852A (100% effect).

human ADAMTS5 [4] = molecular target: T1, human ADAMTS5; test: SPR-based off-rate analysis, human ADAMTS5; format: binding
Method: as §2

B1: ISVD 02F03: immunoglobulin single variable domain which specifically binds ADAMTS5 (protein)
VHH: EVQLVESGGGVVQPGGSLRLSCAASGRTVSSYAMGWFRQAPGKEREFVAGISRSAERTYYVDSLKGRFTISRDNSKNTVYLQMNSLRPEDTALYYCAADLDPNRIFSREEYAYWGQGTLVTVSS
modifications: Description of Artificial Sequence: Synthetic anti-ADAMTS5 immunoglobulin single variable domain (ISVD)
Human ADAMTS5 [1]
  Human FRET % inhibition: 89%
Human ADAMTS4
  inhibition of human ADAMTS4 activity: did not show any inhibitory activity
Human ADAMTS5 [2]
  Human AlphaLISA % inhibition: 100%
Bovine ADAMTS5
  SPR based off-rate, kd, Bovine ADAMTS-5: 4.3e-05 s⁻¹
[3]; IL-1α, GAG release after 5 days
  IC50: 14 nM
[3]; versus bivalent mAb 12F4
  IC50 times lower than mAb 12F4 in bovine explant assay: about 50 times
Human ADAMTS5 [4]; Experiment 1
  SPR based off-rate, kd, Human ADAMTS-5: 3.3e-05 s⁻¹
Human ADAMTS5 [4]; Experiment 2
  SPR based off-rate, kd, Human ADAMTS-5: 6.5e-05 s⁻¹
Human ADAMTS5 [4]; Experiment 3
  SPR based off-rate, kd, Human ADAMTS-5: 9.7e-05 s⁻¹

Reference: patent publication US20240181006A1, “POLYPEPTIDES BINDING ADAMTS5, MMP13 AND AGGRECAN” (Merck Patent GmbH, priority 2017, published 2024)
